Here are results for 5 molecules from patent US20250127885A1 (University of Texas, published 2025).

Experiment [1] addresses T1, HCMV gp34 ectodomain displayed on ExpiCHO cells (human cytomegalovirus (HCMV), UniProt P16809 24-182).
T1 construct: also called gp34-FLAG with a PDGFR anchor; not shown: C-terminal FLAG (M2) tag and PDGFR transmembrane domain
T1 sequence: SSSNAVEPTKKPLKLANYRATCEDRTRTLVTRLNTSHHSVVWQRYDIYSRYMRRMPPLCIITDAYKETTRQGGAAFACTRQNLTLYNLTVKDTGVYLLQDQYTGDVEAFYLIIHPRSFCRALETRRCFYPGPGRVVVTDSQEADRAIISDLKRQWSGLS
In words: flow cytometry on gp34-transfected ExpiCHO cells, antibody-mFc at 10 ug/mL, anti-mouse Fcγ AF647. In general terms: In flow cytometry, cells or beads pass a laser one at a time.

The target in experiment [2] is T2, human IgG1 Fc (no Fab arms) (human, UniProt P0DOX5 230-449 = IgG part).
T2 construct: also called huFc; hu-Fc
In words: ELISA, human Fc coated, FLAG-tagged receptor titrated, anti-FLAG (M2)-HRP; curve assigned by paragraph 53 (top line at 10 ug/mL). On the technique in general: An ELISA detects its analyte on a solid surface through an enzyme-linked reagent.

For experiment [3], the target named is T2, human IgG1 Fc (no Fab arms). Nature of the experiment: ELISA, human Fc coated, FLAG-tagged receptor titrated, anti-FLAG (M2)-HRP; curve assigned by paragraph 53 (lower line at 10 ug/mL).

B1: anti-gp34 antibody 34-2 with murine IgG2a Fc (antibody, V domains shown)
VH: QVQLQQSGTELVKPGASVKLSCTASGFNIKDTYMHWVKQRPEQGLEWIGRIDPASDDTKYDPKFQGKAAITADTSSNTAYLQLSSLTSEDTAVYYCSKDGYYAYWGQGTLVTVSA
VL: DIVMTQSPASLAVSLGQRATISCRASESVDSYGNSFMHWYQQKPGQPPKLLIYRASNLESGIPARFSGSGSRTDFTLTINPVEADDVATYYCQQSYEVPRTFGGGTKLEIKR
notes: Variable domains on human CL and human CH1 joined to murine IgG2a Fc; also called antibody-mFc; not shown: human CH1 region; murine IgG2a Fc (mFc)
For the molecule B1, the binding result in experiment [1] was “binds”.

B2: soluble wild-type HCMV gp34 ectodomain (receptor)
chain: SSSNAVEPTKKPLKLANYRATCEDRTRTLVTRLNTSHHSVVWQRYDIYSRYMRRMPPLCIITDAYKETTRQGGAAFACTRQNLTLYNLTVKDTGVYLLQDQYTGDVEAFYLIIHPRSFCRALETRRCFYPGPGRVVVTDSQEADRAIISDLKRQWSGLS
notes: Prone to aggregation; SEC-purified for the ELISA; also called WT gp34; wild-type (WT) gp34; not shown: C-terminal FLAG (M2) tag and Strep tag
Turning to B2, the “EC50 (read off the curve)” value in experiment [2] is ~0.1 µg/mL.

B3: soluble HCMV gp34 ectodomain with C150S (gp34-M) (receptor)
chain: SSSNAVEPTKKPLKLANYRATCEDRTRTLVTRLNTSHHSVVWQRYDIYSRYMRRMPPLCIITDAYKETTRQGGAAFACTRQNLTLYNLTVKDTGVYLLQDQYTGDVEAFYLIIHPRSFCRALETRRSFYPGPGRVVVTDSQEADRAIISDLKRQWSGLS
notes: also called gp34 C150S; Soluble gp34 C150S; not shown: C-terminal FLAG (M2) tag and single Strep tag
Take B3: the “EC50 (read off the curve)” value in experiment [3] was ~0.04 µg/mL.

B4: anti-gp34 antibody 34-4 with murine IgG2a Fc (antibody, V domains shown)
VH: QVQLQQSGTVLARPGASVKMSCKASGYTFTAYWMHWVKQRPGQGLEWIGAIYPGNSDAGYNQKFKGKAKLTAVTSTSTAYMELSSLANEDSAVYYCTRWGNNSFWGQGTTLTVSS
VL: DIQMTQSPSSMYASLGERVTITCKASQDINSYLTWFQQKPGKSPKTLIYRANRLVDGVPSRFSGSGSGQDYSLTISTLEYEDMGIYYCLQYDEFPPTFGAGTKLELKR
notes: as for B1
B4: the binding result in experiment [1] is given as “binds”.

B5: anti-gp34 antibody 34-5 with murine IgG2a Fc (antibody, V domains shown)
VH: QVQLQQSGAELVRPGTSVKVSCKTSGYAFTNYLIEWVKQRPGQGLEWIGVINPGSGGTNYNEKFKGKATLTADKSSSTAYMQLSSLTSDDSAVYFCVLQVGRLAYWGQGTLVTVSA
VL: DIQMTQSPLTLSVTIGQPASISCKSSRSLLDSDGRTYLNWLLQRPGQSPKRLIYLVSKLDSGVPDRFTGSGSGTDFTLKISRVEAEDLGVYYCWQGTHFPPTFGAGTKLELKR
notes: as for B1
As for B5, the binding result in experiment [1] is listed as “binds”.

The EC50 (read off the curve) is the concentration needed to bring the measured effect to its halfway point.
